Assay results taken from patent US20140045930A1, “ASSAY FOR ARGINYL HYDROXYLASE ACTIVITY” (priority 2011, published 2014).

Target: His-tagged L16 protein (recombinant, produced in YcfD knock out strain JW1114) (E. coli) (UniProt A7ZSK2)
Test: cell-based or functional assay

YcfD ectopically expressed in the deletion strain JW1114 (co-expressed with L16 from pETDuet-1) (from UniProt P27431 1-373) (enzyme)
hydroxylation of R-81 in L16 in vivo (MS); unmodified peptide detected (% unmodified peptide): < 1
